Test results: PMC3656097
Where two headings read alike, the source gives them in different places.

What was measured:
FGF9 [1] = target: FGF9 (UniProt P31371); assay: SPR; BIAcore 3000; […] (31.25–[…]), HBS-EP buffer; 1:1 Langmuir fit
FGF2 [2] = target: FGF2 (UniProt P09038); assay: as above
FGF9 [3] = target: FGF9 (UniProt P31371); assay: as above; remark: listed apart in the source
FGF2 [4] = target: FGF2 (UniProt P09038); assay: as above; remark: listed apart in the source
FGF2 [5] = target: FGF2 (UniProt P09038); conditions: cited from earlier work

Row | Substance | Kd (FGF9 [1]) | koff (FGF9 [1]) | kon (FGF9 [1]) | Kd (FGF2 [2]) | koff (FGF2 [2]) | kon (FGF2 [2]) | Kd (FGF9 [3]) | koff (FGF9 [3]) | kon (FGF9 [3]) | Kd (FGF2 [4]) | koff (FGF2 [4]) | kon (FGF2 [4]) | Kd (FGF2 [5])
1 | FGFR3b Loop 2,3 (domain or fragment) | 31.2 nM | 9.25e-05 s⁻¹ | 2920 M⁻¹ s⁻¹ | 12.3 nM | 0.000159 s⁻¹ | 16500 M⁻¹ s⁻¹ | 29.9 nM | 6.53e-05 s⁻¹ | 2190 M⁻¹ s⁻¹ | 13.5 nM | 6.69e-05 s⁻¹ | 4980 M⁻¹ s⁻¹ | –
2 | FGFR2b Loop 2,3 (from UniProt P21802) | – | – | – | – | – | – | – | – | – | – | – | – | 12.8 nM
